Source: publication PMC12622545, “An Allele of Glutamate Formiminotransferase Triggers 5‐Methyl‐Tetrahydrofolate‐to‐MeFox Conversion and Facilitates Folate Biofortification in Maize” (Advanced Science, 2025)
Substitutions are numbered along the chain they refer to. Names and notes keep the numbering of the source.

T1: SbGFT (Sorghum bicolor, UniProt C5WU82)
T1 construct: gene SORBI_3001G181300; synthetic gene, C-terminal 6xHis tag, E. coli BL21(DE3); monomer; 317 residues (apo crystal: A6-D317, C260S/C314S)
T1 sequence (C5WU82 1-317): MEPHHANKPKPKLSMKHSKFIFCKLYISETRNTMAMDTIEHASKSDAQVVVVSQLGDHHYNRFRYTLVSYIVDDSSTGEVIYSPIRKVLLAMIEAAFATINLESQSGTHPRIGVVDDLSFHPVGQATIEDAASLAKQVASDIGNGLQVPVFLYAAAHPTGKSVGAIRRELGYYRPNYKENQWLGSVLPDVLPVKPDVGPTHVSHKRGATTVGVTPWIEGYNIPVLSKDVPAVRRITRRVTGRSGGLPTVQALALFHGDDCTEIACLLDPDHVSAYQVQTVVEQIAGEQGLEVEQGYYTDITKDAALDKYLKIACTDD

B1: ZmGFT-B73 (Zea mays) (protein)
chain: MEPHHANKPRPKLSATKHSKFISCKLYISESRNATAVDAVERASKSDPQVVVVSQFGDHHYNRFRYTLVSYIVVVDGGGSSAAGEATVVHSPIRKVLLAMIEAAFSSIDLESQSGAHPRIGVVDDLSFHPVGQATIEDAASLARQVASDIACIAAVPVFLYAAAHPAGKSVGAVRRELGYYRPNYRGNQWSGSVLPNVLPVKPDVGPAHVVSHKRGATTVGVTPWIENYNVPVLCKDVATVRRITRGVTGRSGGLPTVQALALFHGDDCTEIACLLDPDHASAYQVQTVVEQIAGDQGLEVEQGYYTDITKDEALDKYLKIACADD
notes: C-terminal 10xHis tag, modified pFastBac1, Sf-9 insect cells; monomer; annotated 326 residues; Asn228
B2: ZmGFT-Qi319 (Zea mays) (protein)
chain: MEPHHANKPKPRPKLSAKHSKFISCKLYISESRNATAVDAVERASKSDPQVVVVSQFGDHHYNRFRYTLVSYIVVDDGGGGGSSAAGEATVVVHSPIRKVLLAMIEAAFSSIDLESQSGAHPRMGVVDDLSFHPVGQATVEDAASLARQVASDIACIAAVPVFLYAAAHPAGKSVGAVRRELGYYRPNYRGNQWSGSVLPDVLPVKPDVGPAHVVSHKRGATTVGVTPWIEGYNVPVLCKDVATVRRITRGVTGRSGGLPTVQALALFHGDDCTEIACLLDPDHASAYQVQTVVEQIAGDQGLEVEQGYYTDITKDEALDKYLKIACADD
notes: natural allele; C-terminal 10xHis tag, modified pFastBac1, Sf-9 insect cells; monomer
B3: ZmGFT-B73 (Zea mays; N228G) (protein)
chain: B1 chain with N228G
notes: as for B1
B4: ZmGFT-Qi319 (Zea mays; G232N) (protein)
chain: B2 chain with G232N
notes: as for B2

Assays:
Test in all cases: LC-MS of MeFox formation, initial rates, Michaelis-Menten fit
Conditions in all cases: 50 mM sodium phosphate pH 7.0, 10 mM beta-mercaptoethanol, 30 °C, 0.5 µM protein
SbGFT = target: T1, SbGFT; assay type: biochemical
[1] = substrate: CN1c2c(nc(N)[nH]c2=O)NC[C@@H]1CNc1ccc(C(=O)N[C@@H](CCC(=O)O)C(=O)O)cc1; assay type: biochemical, Zea mays
[2] = substrate: CN1c2c(nc(N)[nH]c2=O)NC[C@@H]1CNc1ccc(C(=O)N[C@@H](CCC(=O)O)C(=O)O)cc1; assay type: biochemical, Zea mays; remark: listed apart in the source
Source text: LC-MS of MeFox formation, initial rates, Michaelis-Menten fit on ZmGFT-Qi319 | reduced approximately by sixfold for the mutant ZmGFT‐Qi319^G232N

Molecule	K m (SbGFT)	Km [1] [µM]	kcat [1] [s⁻¹]	kcat/Km [1] [M⁻¹ s⁻¹]	Km [2] [µM]	kcat [2] [s⁻¹]	kcat/Km [2] [M⁻¹ s⁻¹]
CN1c2c(nc(N)[nH]c2=O)NC[C@@H]1CNc1ccc(C(=O)N[C@@H](CCC(=O)O)C(=O)O)cc1 [5-M-THF]	Converting analysis of wild‐type SbGFT and its mutant SbGFT^G219N	–	–	–	–	–	–
B1	–	3108.0 ± 2675.5	0.0783 ± 0.055	25.2	–	–	–
B2	–	153.1 ± 38.2	0.0317 ± 0.00167	207	–	–	–
B3	–	888.0 ± 490.3	0.09 ± 0.0233	101	–	–	–
B4	–	–	–	–	2209.0 ± 1046.0	0.075 ± 0.0533	34
